According to patent publication US20260049134A1 (UNIVERSITY OF FLORIDA RESEARCH FOUNDATION, published 2026):
Changes are numbered by the printed parent chain. Names may count otherwise. One block for each binder: values may come before it.

Assays:
[1] = molecular target: T1, CADM1-His (Acro Biosystems) (human, UniProt Q9BY67 45-374); test: ELISA on coated protein
T1 construct: Bought; also called CADM1/IGSF4A; not shown: His tag of the bought protein
T1 sequence: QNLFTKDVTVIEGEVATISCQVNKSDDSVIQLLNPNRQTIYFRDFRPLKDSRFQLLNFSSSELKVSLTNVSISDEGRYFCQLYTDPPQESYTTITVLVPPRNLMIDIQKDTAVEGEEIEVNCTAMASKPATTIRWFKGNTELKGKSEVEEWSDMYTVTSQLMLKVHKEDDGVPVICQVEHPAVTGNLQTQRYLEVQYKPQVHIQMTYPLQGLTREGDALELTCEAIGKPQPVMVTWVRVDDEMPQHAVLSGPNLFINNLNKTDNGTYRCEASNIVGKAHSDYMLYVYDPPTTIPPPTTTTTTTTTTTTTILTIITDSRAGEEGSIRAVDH

[2] = molecular target: T2, PTPRG-Fc (ECD of human PTPRG, aa 20-736, fused to human Fc gamma 1) (human, UniProt P23470 20-736); test: ELISA on coated protein
T2 construct: Made in-house in Expi293 cells; Used in ELISA and SPR; also called recombinant PTPRG-Fc; PTRPG; not shown: human IgG1 Fc (Fc gamma 1) after the hinge
T2 sequence: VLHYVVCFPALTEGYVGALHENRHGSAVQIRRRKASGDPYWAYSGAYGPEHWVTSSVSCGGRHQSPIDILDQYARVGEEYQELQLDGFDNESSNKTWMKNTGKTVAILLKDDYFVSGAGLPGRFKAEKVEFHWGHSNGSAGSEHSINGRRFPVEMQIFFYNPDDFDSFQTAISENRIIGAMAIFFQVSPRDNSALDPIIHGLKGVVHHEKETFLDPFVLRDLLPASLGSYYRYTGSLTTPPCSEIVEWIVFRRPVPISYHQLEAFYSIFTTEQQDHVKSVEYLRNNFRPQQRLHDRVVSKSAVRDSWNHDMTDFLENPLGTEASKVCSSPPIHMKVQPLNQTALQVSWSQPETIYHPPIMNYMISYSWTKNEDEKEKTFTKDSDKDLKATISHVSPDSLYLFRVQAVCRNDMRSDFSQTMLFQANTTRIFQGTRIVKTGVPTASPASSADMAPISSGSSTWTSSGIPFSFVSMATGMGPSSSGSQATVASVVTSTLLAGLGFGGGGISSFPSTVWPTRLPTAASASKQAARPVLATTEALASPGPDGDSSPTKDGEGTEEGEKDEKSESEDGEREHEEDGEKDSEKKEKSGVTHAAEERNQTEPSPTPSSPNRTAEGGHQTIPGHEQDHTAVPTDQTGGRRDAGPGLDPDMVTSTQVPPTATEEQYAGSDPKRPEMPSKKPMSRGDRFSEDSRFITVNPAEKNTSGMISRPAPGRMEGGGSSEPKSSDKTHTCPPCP

[3] = molecular target: T3, CADM1, endogenous in H929 multiple myeloma cells (human, UniProt Q9BY67 45-442); test: flow cytometry, H929 + ICAM1 siRNA; None 455
T3 construct: Native protein on H929 cells (flow cytometry, siRNA knockdown) and in H929 lysates (IP/MS); RPMI-8226 cells were used for sorting with HW-97; also called IGSF4A
T3 sequence: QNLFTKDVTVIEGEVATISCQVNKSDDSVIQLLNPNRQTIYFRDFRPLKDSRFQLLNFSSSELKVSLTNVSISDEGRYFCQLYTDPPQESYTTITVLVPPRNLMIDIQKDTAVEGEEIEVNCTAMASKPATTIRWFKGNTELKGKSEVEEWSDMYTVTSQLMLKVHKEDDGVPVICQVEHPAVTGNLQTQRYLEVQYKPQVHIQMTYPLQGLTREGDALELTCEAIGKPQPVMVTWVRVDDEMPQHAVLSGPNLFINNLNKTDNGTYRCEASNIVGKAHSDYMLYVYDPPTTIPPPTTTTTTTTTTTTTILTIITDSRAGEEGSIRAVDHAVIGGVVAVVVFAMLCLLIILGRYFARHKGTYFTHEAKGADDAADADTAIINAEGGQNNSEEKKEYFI

[4] = molecular target: T3, CADM1, endogenous in H929 multiple …; test: flow cytometry, H929 + ICAM1 siRNA; None 1.06
[5] = molecular target: T4, ICAM1, endogenous in H929 multiple myeloma cells (human, UniProt P05362 28-532); test: flow cytometry, H929 + vehicle; None 513
T4 construct: Native protein on H929 cells (flow cytometry, siRNA knockdown) and in H929 lysates (IP/MS); also called CD54
T4 sequence (P05362 28-532 limits assumed): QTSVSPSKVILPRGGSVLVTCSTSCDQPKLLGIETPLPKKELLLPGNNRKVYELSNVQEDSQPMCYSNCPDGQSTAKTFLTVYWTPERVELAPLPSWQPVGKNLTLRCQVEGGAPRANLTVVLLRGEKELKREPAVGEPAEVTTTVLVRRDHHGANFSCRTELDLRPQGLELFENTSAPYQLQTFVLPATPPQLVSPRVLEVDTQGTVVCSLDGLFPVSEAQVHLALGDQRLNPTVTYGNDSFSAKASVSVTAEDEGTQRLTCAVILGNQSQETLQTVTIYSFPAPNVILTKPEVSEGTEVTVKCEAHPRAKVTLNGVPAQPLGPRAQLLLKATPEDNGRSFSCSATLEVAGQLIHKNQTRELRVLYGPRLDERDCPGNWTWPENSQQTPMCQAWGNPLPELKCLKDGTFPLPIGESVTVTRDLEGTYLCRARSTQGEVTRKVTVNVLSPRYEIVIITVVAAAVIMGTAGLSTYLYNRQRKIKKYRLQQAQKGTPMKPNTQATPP

B1: HW-8 chimeric rabbit-human IgG1 LA/LA/PG (antibody, V domains shown)
VH: QSLEESGGRLVTPGTPLTLTCTVSGFSLSSYAMSWVRQAPGKGLEWIGAISTGGSTTYASWAKGRFTISKTSSTTVDLKMTSLTTEDTATYFCVRHFRLWGPGTLVTISS
VL: QVLTQTPSSVSAAVGGTVTIKCQASQSIGSALAWFQQKPGQRPKLLIYRASNLASGVPSRFKGSGSGTEFALTISGVQREDAATYYCLGGAAAVWAFGAGTNVEIKR
notes: Fc-silenced (L234A/L235A/P329G) IgG1, kappa; Alexa Fluor 647-labeled in single-step flow cytometry; Cluster C-45
- binding result [1]: no binding (tested: 150 ng IgG1 per well)
- binding result [2]: no binding (tested: 150 ng IgG1 per well)

B2: HW-1 chimeric rabbit-human IgG1 LA/LA/PG (antibody, V domains shown)
VH: QSLEESGGGLFKPTDTLTLTCTASGFSLGSSYAISWVRQAPGKELEWIGTIDSGRAYYARWAKSRSTITRNTNENTVTLKMTSLTAADTATYFCARDLIPTYSQDIWGPGTLVTISS
VL: SFVLTQPASVQVNLGQTVSLTCTADTLSRRYASWYQQKPGQAPVLLIYRDTSRPSGVPDRFSGSSSGNTATLTISGAQAGDEADYYCATSDGSGNSYQYVFGGGTQLTVTS
notes: Fc-silenced (L234A/L235A/P329G) IgG1, lambda; Alexa Fluor 647-labeled in single-step flow cytometry; Prototype of cluster C-1
- binding result [1]: no binding (tested: 150 ng IgG1 per well)

B3: HW-17 chimeric rabbit-human IgG1 LA/LA/PG (antibody, V domains shown)
VH: QSLGESRGRLVTPDETLTLTCTVSGIDLSSNAMSWVRQAPGEGLEWIGTINTGGRAYYASWAKGRFTISRTSTTVDLKMTSLTTEDTATYFCARERYSDGRAYDIWGPGTLVTISS
VL: B2 VL with R49T, T51S, S52N, V57I, S90D, N95S, S96I, S111G
notes: Fc-silenced (L234A/L235A/P329G) IgG1, lambda; Alexa Fluor 647-labeled in single-step flow cytometry; Cluster C-1
- binding result [1]: no binding (tested: 150 ng IgG1 per well)

B6: HW-97 chimeric rabbit-human IgG1 LA/LA/PG (antibody, V domains shown)
VH: QKQLVESGGRLVTPGTPLTLTCTVTGIDLSSHGMSWVRQAPGKGLEWIGVIYPSGSTWYASWARGRFTISKTSTTVDLKMTSLTTEDTATHFCARGDVGGADNNIWGPGTLVTVSS
VL: B2 VL with N13D, D25E, R30S, N95S, S111G
notes: Fc-silenced (L234A/L235A/P329G) IgG1, lambda; Alexa Fluor 647-labeled in single-step flow cytometry; Prototype of cluster C-97
- mAb binding (MFI) [3]: 9430
- Cells stained (%) [4]: 97.1%
- binding result [2]: no binding (tested: 150 ng IgG1 per well)

B8: TH9-0022 (antibody, human IgG1, kappa, L234A L235A, V domains shown)
VH: QSLEESGGRLVTPGTPLTLTCTVSGFSLSSYAMNWVRQAPGKGLEWIGIINSYGSTYYASWAKGRFTISKTSTTVDLKITSPTTEDTATYFCARVTYDSYGYGYAPYGMDLWGPGTLVTVSS
VL: LVMTQTPSSTSNAVGGTVTIKCQASQSIGNVLAWYQQKPGQPPKLLIYAASTLASGVPSRVGGSRSGTEYTLTISGVQREDAATYYCLGSDSDSDIAFGGGTELEILR
notes: also called TH9-022; negative control IgG1
- binding result [1]: no binding (tested: 150 ng IgG1 per well)
- binding result [2]: no binding (tested: 150 ng IgG1 per well)

Second part, led by results:

- mAb binding (MFI) [3]: 6390
- Cells stained (%) [4]: 93.8%
B4: HW-101 chimeric rabbit-human IgG1 LA/LA/PG (antibody, V domains shown)
VH: QEQLVESGGRLVTPGTPLTLTCKASGFSLGKYDMSWVRQAPGKGLEWIGTIYAGSGSTWYASWAKGRFTISKTSTTVDLKMTSLTTEDTATYFCARDFLGVNSIWGPGTLVTISS
VL: B2 VL with R30S, G40D, Y48H, S65N, N95S, S96N, Y97F, Q98H, Y99F, S111G
notes: Fc-silenced (L234A/L235A/P329G) IgG1, lambda; Alexa Fluor 647-labeled in single-step flow cytometry; Cluster C-97
- binding result [2]: no binding (tested: 150 ng IgG1 per well)

- mAb binding (MFI) [5]: 49100
B5: HW-113 chimeric rabbit-human IgG1 LA/LA/PG (antibody, V domains shown)
VH: QKQLVESGGGLVQPGGSLTLTCTVSGFSLNKYYMGWFRQAPGKGLEWIGVISRSGDTYYSSWAKGRFTISKASTTVDLRITSPTTEDTATYFCARDASSPGFHGDRLDLWGQGTLVTVSS
VL: B2 VL with R30S, S93I, N95S, S96N, Q98L, Y99W, S111G
notes: Fc-silenced (L234A/L235A/P329G) IgG1, lambda; Alexa Fluor 647-labeled in single-step flow cytometry
- binding result [1]: no binding (tested: 150 ng IgG1 per well)
- binding result [2]: no binding (tested: 150 ng IgG1 per well)

- mAb binding (MFI) [5]: 595
B7: TH9-0022 (antibody, human IgG1, kappa, L234A L235A, V domains shown)
VH: B8 VH
VL: B8 VL
notes: also called TH9-022; negative control
